Assay results reported in patent US20250051473A1 (IGM BIOSCIENCES, published 2025).

T1: human CD157 protein (SinoBiological, 10060-H08H) (human, UniProt Q10588 33-292)
T1 construct: Bought recombinant protein, coated on the ELISA plate
T1 sequence (looked up): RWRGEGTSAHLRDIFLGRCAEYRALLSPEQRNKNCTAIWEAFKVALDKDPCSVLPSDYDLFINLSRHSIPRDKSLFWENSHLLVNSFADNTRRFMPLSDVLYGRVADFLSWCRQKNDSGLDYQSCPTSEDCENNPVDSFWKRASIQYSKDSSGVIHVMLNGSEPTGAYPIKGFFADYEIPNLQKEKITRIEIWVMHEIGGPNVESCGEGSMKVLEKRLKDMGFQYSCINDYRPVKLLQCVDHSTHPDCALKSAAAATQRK

T2: mouse CD38 (ACROBiosystems, CD8-M5223) (mouse, UniProt P56528 45-304)
T2 construct: Bought recombinant protein, coated on the ELISA plate
T2 sequence (looked up): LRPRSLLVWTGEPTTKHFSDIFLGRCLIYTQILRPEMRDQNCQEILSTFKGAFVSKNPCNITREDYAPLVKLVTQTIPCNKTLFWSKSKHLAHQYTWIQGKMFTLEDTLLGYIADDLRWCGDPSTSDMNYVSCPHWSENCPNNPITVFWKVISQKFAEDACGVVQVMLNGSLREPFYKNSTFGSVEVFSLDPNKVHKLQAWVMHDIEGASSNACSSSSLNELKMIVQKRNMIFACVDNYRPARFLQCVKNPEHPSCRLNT


How the values were obtained:
[1] = target: T3, recombinant cynomolgus monkey CD38 extracellular domain protein (ACROBiosystems) (cynomolgus monkey, UniProt Q5VAN0 44-301); assay: ELISA, plate coated with recombinant cynomolgus CD38 extracellular domain, HRP anti-human kappa detection, chemiluminescence (RLU)
T3 construct: Bought extracellular domain protein; also called cyno CD38; recombinant cyno CD38
Experimental: (§1) Plates were then washed five times with 0.05% phosphate buffered saline (PBS)-polysorbate sold under the trademark TWEEN® (PBS-TWEEN®) and blocked with 2% bovine serum albumin (BSA)-PBS. After blocking, 100 μL of serial dilutions of chimeric CD38×CD3 IgM antibodies, standards, and controls were added to each well of the plates and incubated at room temperature for 2 hours. […] PRISM® using a 4-parameter logistic model.

[2] = target: T4, recombinant human CD38 extracellular domain protein (ACROBiosystems, Cat #CD8-H5224) (human, UniProt P28907 43-300); assay: ELISA, plate coated with recombinant human CD38 extracellular domain, HRP anti-human kappa detection, chemiluminescence (RLU)
T4 construct: Bought protein; also called recombinant human CD38 protein
Experimental: as §1

[3] = target: cell surface human CD38 on NCI-H929 myeloma cells (human, UniProt P28907 1-300); assay: flow cytometry on NCI-H929 cells, AF488 anti-human kappa secondary antibody, median FL-1
Experimental: In addition, binding to cell surface human CD38 was assessed using the myeloma cell line, NCI-H929 (H929), and flow cytometry analysis. In brief, H929 cells were stained with serial dilutions of chimeric CD38×CD3 IgM antibodies for 30 minutes at 4° C. […] Cells were then washed twice, resuspended in fluorescence-activated cell sorting (FACS) stain buffer, and measured using flow cytometry.

[4] = target: T4, recombinant human CD38 extracellular …; assay: ELISA screen of hybridoma supernatants on recombinant CD38
[5] = target: T3, recombinant cynomolgus monkey CD38 …; assay: as above
[6] = target: T1, human CD157 protein (SinoBiological, …); assay: ELISA, antigen coated at 1 µg/mL, serial dilutions of IgM
[7] = target: T2, mouse CD38 (ACROBiosystems, CD8-M5223); assay: as above
[8] = target: T4, recombinant human CD38 extracellular …; assay: ELISA, plate coated with 1 ug/mL recombinant human CD38, HRP anti-human kappa detection, chemiluminescence (RLU)
Experimental: The specificities of humanized CD38×CD3 IgM antibodies were measured in ELISA assays as follows. […] Plates were then washed with 0.05% PBS-polysorbate sold under the trademark TWEEN® (PBS-TWEEN®) and blocked with 2% BSA-PBS. After blocking, 100 μL of serial dilutions of humanized CD38×CD3 IgM antibodies and controls were added to the wells and incubated at room temperature for 2 hours. […] PRISM® using a 4-parameter logistic model.

| Binder | binding result [1] | binding result [2] | binding result [3] | binding result [4] | binding result [5] | other results |
| --- | --- | --- | --- | --- | --- | --- |
| IgM B-1 (bispecific antibody, Constant regions not specified; also called chimeric CD38 × CD3 IgM antibody of Clone B) VH: QAYLQQSGAEVVRSGASVKMSCKAAGYTFTSYNMHWVKQTPGQGLEWIGYIYPGNGGTNYNQKFKGKATLTADTSSTTAYMQISSLTSEDSAVYFCARGASMITTGAWFAYWGQGTLVTVSA VL: NIVLTQSPASLAVSLGQRATISCRASESLDTYGNSFMYWYQQKPGQPPKLLIYLASSLESGVPARFSGSGSRTDFTLTIDPVEADDAATYYCHQNHEDPWTFGGGTKLEIK not shown | binds | binds | binds |  |  |  |
| IgM F-1 (bispecific antibody, Constant regions not specified; also called chimeric CD38 × CD3 IgM antibody of Clone F) VH: EVQLQQSGAEFVRPGASVKLSCTASGFNIKDSLMHWVKQRPEQGLEWIGWIDPEDDKTKYAPKFQDEATLTADTSSNTAYLHLSSLTSEDTAIYYCARRFLRGFAYWGQGTLVTVSA VL: DIVMTQSPSSLSVSAGEKVTMSCKSSQSLLNSGNQKNYLAWYQQKPGQPPKLLIYGASTRESGVPDRFTGSGSGTDFTLTISSVQAEDLAVYYCQNDHSYPYTFGGGTKLEIK not shown | binds | binds | binds |  |  |  |
| Clone F (antibody, V domains shown, Murine hybridoma antibody tested as supernatant; also called anti-CD38 murine hybridoma clone F) VH: EVQLQQSGAEFVRPGASVKLSCTASGFNIKDSLMHWVKQRPEQGLEWIGWIDPEDDKTKYAPKFQDEATLTADTSSNTAYLHLSSLTSEDTAIYYCARRFLRGFAYWGQGTLVTVSA VL: DIVMTQSPSSLSVSAGEKVTMSCKSSQSLLNSGNQKNYLAWYQQKPGQPPKLLIYGASTRESGVPDRFTGSGSGTDFTLTISSVQAEDLAVYYCQNDHSYPYTFGGGTKLEIK |  |  |  | binds | binds |  |
| Clone D (antibody, V domains shown, Murine hybridoma antibody tested as supernatant; also called anti-CD38 murine hybridoma clone D) VH: QIQLVQSGPELKKPGETVKISCKASGYTFTNYGMNWVKQAPGEDLKWMGWLNTNTGEPTYAEEFKGRFAFSLETSASTAYLQINNLRNEDTATYFCARWYYGSSDNSYAMDYWGQGTSVTVSS VL: ETIVTQFPASLSMAIGEKVTIRCITSTDIDDDMNWYQQRPGEPPKLLISEGNTLRPGVPSRFSSSGYGTDFVFTFENMLSEDVADYYCLQSDSLPYTVGGGTRLEIK |  |  |  | binds | binds |  |
| IgM C-1 (bispecific antibody, Constant regions not specified; also called chimeric CD38 × CD3 IgM antibody of Clone C) VH: EVQLQQSGTVLARPGASVKMSCKASGYTFTRYWMHWVKQRPGQDLEWIGGFYPGNSDTRYNQKFKDKAKLTAVTSTSTAYMELSSLTNEDSAVYYCTRGDRHDEGFAYWGQGTLVTVSA VL: DIQMTQSPASLSASVGETVTITCRASGNIHNYLAWYQQKQGKSPQLLVYNAKTLPDGVPSRFSGSGSGTQYSLKINSLQPEDFGTYYCQNIWTNYTFGGGTKLEIK not shown | binds | binds | binds |  |  |  |
| Clone C (antibody, V domains shown, Murine hybridoma antibody tested as supernatant; also called anti-CD38 murine hybridoma clone C) VH: EVQLQQSGTVLARPGASVKMSCKASGYTFTRYWMHWVKQRPGQDLEWIGGFYPGNSDTRYNQKFKDKAKLTAVTSTSTAYMELSSLTNEDSAVYYCTRGDRHDEGFAYWGQGTLVTVSA VL: DIQMTQSPASLSASVGETVTITCRASGNIHNYLAWYQQKQGKSPQLLVYNAKTLPDGVPSRFSGSGSGTQYSLKINSLQPEDFGTYYCQNIWTNYTFGGGTKLEIK |  |  |  | binds | binds |  |
| IgM E-1 (bispecific antibody, Constant regions not specified; also called chimeric CD38 × CD3 IgM antibody of Clone E) VH: QVQLQQSGAELVRPGTSVKMSCKAAGYTFTNHWIEWVKQRPGHGLEWIGDIFPGGGYTDYNEKFKGKATLTADTSSSTAYMQLSSLTSEDSAIYYCARGRDLAMDYWGQGTSVTVSS VL: DIQMNQSPSSLSASLGDTITITCHASQNINVWLGWYQQKPGNIPKLLIYKASNLHTGVPSRFSGSGSGTGFTLTISSLQPEDIATYYCQQGQSYPYTFGGGTKLEIK not shown | binds | binds | binds |  |  |  |
| Clone A (antibody, V domains shown, Murine hybridoma antibody tested as supernatant; also called anti-CD38 murine hybridoma clone A) VH: QVQLQQSGAELVKPGASVKISCKASGYTFSNYWIEWVKQRPGLGLEWIGDILPGSGTTNYNEKFKGKATFTADTSSNTAYMQLSSLTSEDSAVYYCAGYGNYLWFTYWGQGTLVTVSA VL: DIQMNQSPSSLSASLGDTITITCHASQNINVWLSWYQQKPGNIPKLLIYKASNLHTGVPSRFSGSGSGTGFTLTISSLQPEDIATYYCQQGQSYPYTFGGGTKLEIK |  |  |  | binds | binds |  |
| IgM A-1 (bispecific antibody, The IgM heavy chain constant region and the light chain constant region used are not specified; also called chimeric CD38 × CD3 IgM antibody of Clone A) VH: QVQLQQSGAELVKPGASVKISCKASGYTFSNYWIEWVKQRPGLGLEWIGDILPGSGTTNYNEKFKGKATFTADTSSNTAYMQLSSLTSEDSAVYYCAGYGNYLWFTYWGQGTLVTVSA VL: DIQMNQSPSSLSASLGDTITITCHASQNINVWLSWYQQKPGNIPKLLIYKASNLHTGVPSRFSGSGSGTGFTLTISSLQPEDIATYYCQQGQSYPYTFGGGTKLEIK not shown |  |  |  |  |  | EC50 (read off the curve) [1]: ~0.2 µg/mL; EC50 (read off the curve) [2]: ~0.2 µg/mL; EC50 (read off the curve) [3]: ~2 nM |
| IgM OKT10-2 (bispecific antibody, Constant regions not specified; also called humanized CD38 × CD3 IgM antibody) VH: EVQLLESGGGLVQPGGSLRLSCAASGFDFSRSWMNWVRQAPGKGLEWVSEINPDSSTINYATSLKDRFTISRDNSKNTLYLQMNSLRAEDTAVYYCARYGNWFPYWGQGTLVTVSS VL: DIQMTQSPSSLSASVGDRVTITCKASQNVDTNVAWYQQKPGKAPKALIYSASYRYSGVPSRFSGSGSGTDFTLTISSLQPEDFATYYCQQYDSYPLTFGQGTKVEIK not shown |  |  |  |  |  | binding result [6]: no binding; binding result [7]: no binding; EC50 (read off the curve) [8]: ~0.3 µg/mL |
| IgM OKT10-4 (bispecific antibody, Constant regions not specified; also called humanized CD38 × CD3 IgM antibody) VH: EVQLLESGGGLVQPGGSLRLSCAASGFDFSRSWMNWVRQAPGKGLEWVSEINPDSSTINYATSLKDRFTISRDNSKNTLYLQMNSLRAEDTAVYYCARYGNWFPYWGQGTLVTVSS VL: DIQMTQSPSSLSASVGDRVTITCKASQNVDTNVAWYQQKPGKAPKALIYSASYRYSGVPSRFSGSGSGTDFTLTISSLQPEDFATYYCQQYDSYPLTFGQGTKVEIK not shown |  |  |  |  |  | binding result [6]: no binding; binding result [7]: no binding; binding result [8]: binds |
| IgM H-1 (bispecific antibody, Constant regions not specified; also called chimeric CD38 × CD3 IgM antibody of Clone H) VH: QVPLHQSGPELIKPGASLKISCKASDSAFNNSWMNWVRQRPGKGLEWIGWIYPGDDDTKYNGKFMGKATLTADKSSGTAYMQLSSLTSEDSAVYFCARGRWGMDYWGQGTSVTVSS VL: DIVMTQFHNFMSTSVGDRVNINCKASQNVVTAVAWYQQKPGQSPKLLIYWASTRHTGVPDRFTGSGSGTDFTLTISNVQSEDLADYFCQQYSNYPFTFGSGTKLEIK not shown | binds | binds | binds |  |  |  |
| Clone H (antibody, V domains shown, Murine hybridoma antibody tested as supernatant; also called anti-CD38 murine hybridoma clone H) VH: QVPLHQSGPELIKPGASLKISCKASDSAFNNSWMNWVRQRPGKGLEWIGWIYPGDDDTKYNGKFMGKATLTADKSSGTAYMQLSSLTSEDSAVYFCARGRWGMDYWGQGTSVTVSS VL: DIVMTQFHNFMSTSVGDRVNINCKASQNVVTAVAWYQQKPGQSPKLLIYWASTRHTGVPDRFTGSGSGTDFTLTISNVQSEDLADYFCQQYSNYPFTFGSGTKLEIK |  |  |  | binds | binds |  |
| Clone G (antibody, V domains shown, Murine hybridoma antibody tested as supernatant; also called anti-CD38 murine hybridoma clone G) VH: QVQLQQPGPELVKPVASVKISCKTSDYAFSSSWMNWVKQRPGKGLEWIGWIYPGDGDTNYNGKFKGKATLTADKSSSTAYMQLSSLTSEDSAVYFCARGRWGMDNWGQGTSVTVSS VL: DIVMTQSHKFMSTSVGDRVSITCKASQNVVTAVAWYQQKPGQSPKLLIYWASSRHTGVPDRFTGSGSGTDFTLTISNVQSEDLADYFCQQYSNYPFTFGSGTKLEIK |  |  |  | binds | binds |  |
| Clone I (antibody, V domains shown, Murine hybridoma antibody tested as supernatant; also called anti-CD38 murine hybridoma clone I) VH: QVPLQQSGPELVKPGASVKISCKASDSAFNNSWTIWVRQRPGKGLEWIGWIYPGDDDTKYNGKFMGKATLTADKSSGTAYMQLSSLTSEDSAVYFCARGRWGMDYWGQGTSVTVSS VL: DIVMTQSRKFMSTSVGDRVSISCKASQNVVTAVAWYQQKPGQSPKLLIYWASTRHTGVPDRFTGSGSGTDFTLTISNVQSEDLADYFCQQYSNYPFTFGSGTELEIK |  |  |  | binds | binds |  |
